# Source: article PMC1287507, “Ankyrin-B Coordinates the Na/K ATPase, Na/Ca Exchanger, and InsP3 Receptor in a Cardiac T-Tubule/SR Microdomain” (PLoS Biology, 2005)
# Legend:
# [1] = target: 220-kDa ankyrin-B (endogenous, mouse) (mouse (endogenous in mouse heart and brain)); experiment: co-IP; detergent-soluble lysates of ankyrin-B+/- mouse heart, doubled amount of input lysate, compared with wild-type heart
# [2] = target: InsP3R purified from bovine brain cerebellum (bovine, UniProt Q9TU34 1-2709, ^125I-labeled in the saturation binding; biotinylated with NHS-LC-biotin in the reconstitution); experiment: radioligand binding; saturation binding: increasing concentrations of ^125I-labeled protein with glutathione Sepharose-immobilized GST-ankyrin-B membrane-binding domain, 2 h at 25 °C; binding to GST beads subtracted; Scatchard analysis; settings: both partners purified
molecule,measurement,setting,value
"Na/K ATPase (endogenous, mouse; isoform not told) (from UniProt Q8VDN2 1-1023) (natural protein)",loss of co-immunoprecipitation in ankyrin-B+/- heart against wild-type heart,[1],> 60%
"Na/Ca exchanger 1 (endogenous, mouse) (from UniProt P70414 33-970) (natural protein)",loss of co-immunoprecipitation in ankyrin-B+/- heart against wild-type heart,[1],> 60%
"inositol 1,4,5-trisphosphate receptor (endogenous, mouse) (from UniProt P11881 1-2749)",loss of co-immunoprecipitation in ankyrin-B+/- heart against wild-type heart,[1],> 60%
GST-ankyrin-B membrane-binding domain (domain or fragment) KSDSNASFLRAARAGNLDKVVEYLKGGIDINTCNQNGLNALHLAAKEGHVGLVQELLGRGSSVDSATKKGNTALHIASLAGQAEVVKVLVKEGANINAQSQNGFTPLYMAAQENHIDVVKYLLENGANQSTATEDGFTPLAVALQQGHNQAVAILLENDTKGKVRLPALHIAARKDDTKSAALLLQNDHNADVQSKMMVNRTTESGFTPLHIAAHYGNVNVATLLLNRGAAVDFTARNGITPLHVASKRGNTNMVKLLLDRGGQIDAKTRDGLTPLHCAARSGHDQVVELLLERGAPLLARTKNGLSPLHMAAQGDHVECVKHLLQHKAPVDDVTLDYLTALHVAAHCGHYRVTKLLLDKRANPNARALNGFTPLHIACKKNRIKVMELLVKYGASIQAITESGLTPIHVAAFMGHLNIVLLLLQNGASPDVTNIRGETALHMAARAGQVEVVRCLLRNGALVDARAREEQTPLHIASRLGKTEIVQLLLQHMAHPDAATTNGYTPLHISAREGQVDVASVLLEAGAAHSLATKKGFTPLHVAAKYGSLDVAKLLLQRRAAADSAGKNGLTPLHVAAHYDNQKVALLLLEKGASPHATAKNGYTPLHIAAKKNQMQIASTLLNYGAETNIVTKQGVTPLHLASQEGHTDMVTLLLDKGANIHMSTKSGLTSLHLAAQEDKVNVADILTKHGADQDAHTKLGYTPLIVACHYGNVKMVNFLLKQGANVNAKTKNGYTPLHQAAQQGHTHIINVLLQHGAKPNATTANGNTALAIAKRLGYISVVDTLKVVTEEVTTTTTTITEKHKLNVPETMTEVLDVSDEEGDDTMTGDGGEYLRPEDLKELGDD,Kd,[2],3 nM
